This experiment concerns the target ribosomal protein uL29 (B. subtilis (endogenous in the B. …, UniProt P12873 1-66)). As to the kind of experiment: cryo-EM structure; (Bs)SRP pre-incubated with pppGpp, tenfold molar excess over MifM-stalled RNCs, 10 min at room temperature. The settings on record: both partners purified.

B1: recombinant (Bs)SRP (Ffh and 6S RNA) (natural protein)
chain: MAFEGLADRLQQTISKIRGKGKVSEQDVKEMMREVRLALLEADVNFKVVKDFVKKVSERAVGQDVMKSLTPGQQVIKVVQEELTELMGGEESKIAVAKRPPTVIMMVGLQGAGKTTTSGKLANLLRKKHNRKPMLVAADIYRPAAIKQLETLGKQLDMPVFSLGDQVSPVEIAKQAIEKAKEEHYDYVILDTAGRLHIDHELMDELTNVKEIANPEEIFLVVDSMTGQDAVNVAKSFNEQLGLTGVVLTKLDGDTRGGAALSIRAVTNTPIKFAGLGEKLDALEPFHPERMASRILGMGDVLTLIEKAQASVDEDKAKELEQKMRTMSFTLDDFLEQLGQVRNMGPLDELLQMMPGAGKMKGLKNIQVDEKQLNHVEAIIKSMTVLEKEQPDIINASRRKRIAKGSGTSVQEVNRLLKQFDEMKKMMKQMTNMSKGKKKGFKLPFM
notes: Ffh, B. subtilis, full length; Ribonucleoprotein: the protein stood with the 6S SRP RNA and with pppGpp or GMPPNP; also called full-length (Bs)Ffh; not shown: 6xHis, N-terminal, cleaved
With B1, the binding result is given as “binds”.

The values are drawn from publication PMC8881573, “Inhibition of SRP-dependent protein secretion by the bacterial alarmone (p)ppGpp” (Nature Communications, 2022).
